In publication PMC3418226:
Blank lines part the entries; values can stand above or below the substance they belong to.

Target: SAP (UniProt O60880)
Experiment: GST-SAP pull-down, anti-myc blot
Details: reference: myc-CD3ζ wild type

binding against the reference (sites Y72): weaker
Substance: CD3ζ (from UniProt P20963) Y72F

binding against the reference (sites Y72,Y83): lost
Substance: CD3ζ (from UniProt P20963) Y72F/Y83F (first ITAM)

binding against the reference (sites Y83): weaker
Substance: CD3ζ (from UniProt P20963) Y83F
